Measurements as given in patent US11814364B2, “Pyridine N-oxide derivatives useful as factor XIa inhibitors” (Janssen Pharmaceutica NV, priority 2021, dated 2023).
*1 amine or outer side, *2 acyl side, *3 side chain or, on linkers, in order; H or OH if unused. The star is where a group is joined. Lys(5-TAMRA) = CN(C)c1ccc2c(-c3ccc(C(=O)NCCCC[C@H](N[*:1])C(=O)[*:2])cc3C(=O)[O-])c3ccc(N(C)C)cc3[o+]c2c1; 5FAM = O=C1OC2(c3ccc(O)cc3Oc3cc(O)ccc32)c2ccc(C(=O)*)cc21

Molecular target: Factor XIa (Homo sapiens, UniProt P03951)
Sequence (P03951 388-625 limits assumed): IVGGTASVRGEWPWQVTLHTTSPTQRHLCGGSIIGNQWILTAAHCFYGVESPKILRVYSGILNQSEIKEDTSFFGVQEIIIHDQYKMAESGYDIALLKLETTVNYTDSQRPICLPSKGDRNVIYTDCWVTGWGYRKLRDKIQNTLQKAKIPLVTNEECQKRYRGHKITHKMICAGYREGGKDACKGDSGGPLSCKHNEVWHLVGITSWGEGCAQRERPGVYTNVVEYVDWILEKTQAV
Sequence (P03951 19-387 partner limits assumed): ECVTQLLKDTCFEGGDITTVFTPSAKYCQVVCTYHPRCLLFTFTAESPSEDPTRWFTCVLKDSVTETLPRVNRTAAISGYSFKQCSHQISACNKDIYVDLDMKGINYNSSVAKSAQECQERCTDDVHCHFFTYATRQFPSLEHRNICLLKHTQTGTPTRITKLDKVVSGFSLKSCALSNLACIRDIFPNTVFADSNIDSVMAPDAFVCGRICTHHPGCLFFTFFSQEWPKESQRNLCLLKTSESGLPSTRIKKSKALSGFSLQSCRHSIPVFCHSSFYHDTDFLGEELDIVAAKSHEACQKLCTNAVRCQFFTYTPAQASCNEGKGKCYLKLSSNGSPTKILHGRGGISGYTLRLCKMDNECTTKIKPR
Test: Factor XIa inhibition FLINT assay with fluorophore-quencher peptide substrate 5Fam-[…]-K5Tamra (end point EP or kinetic KIN reads)
Assay type: biochemical
Conditions: fit to a substrate inhibition model

Km (peptide substrate of FXIa): 12.4 µM
kcat (peptide substrate of FXIa): 0.86 s⁻¹
Ki (substrate inhibition constant): 61.6 µM
Substance: 5Fam-KLTRAETV-K5Tamra (5FAM-KLTRAETV-{Lys(5-TAMRA)}; SMILES CC(C)C[C@H](NC(=O)[C@H](CCCCN)NC(=O)c1ccc2c(c1)C(=O)OC21c2ccc(O)cc2Oc2cc(O)ccc21)C(=O)N[C@H](C(=O)N[C@@H](CCCNC(=N)N)C(=O)N[C@@H](C)C(=O)N[C@@H](CCC(=O)O)C(=O)N[C@H](C(=O)N[C@H](C(=O)N[C@@H](CCCCNC(=O)c1ccc(-c2c3ccc(N(C)C)cc3[o+]c3cc(N(C)C)ccc23)c(C(=O)[O-])c1)C(=O)O)C(C)C)[C@@H](C)O)[C@@H](C)O) ["The peptide substrate ; (purchased from New England Peptide)", "designed with a fluorophore-quencher pair", based on the Arg146 cleavage site of FXI]
